# Measured values published in the RNAGym collection of RNA variant scans (doi:10.1073/pnas.2313332121).
# Variants at the floor of the assay were thinned out.
# B1: TPR 5TU (parent)
# chain: GGAUCUUCUCGAUCUAACAAAAAAGACAAAUCUGCCACAAAGCUUGAGAGCAUCUUCGGAUGCAGAGGCGGCAGCCUUCGGUGGCGCGAUAGCGCCAACGUUCUCAACUAUGACACGCAAAACGCGUGCUCCGUUGAAUGGAGUUUAUCAUG
# Variants of: B1
# Assay: polymerase ribozyme fitness, log enrichment relative to wild type (log ratio); higher = more active; in vitro selection for triplet polymerase activity
# Summary of the method: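 PCR was used to build mutant libraries for each subunit of a heterodimeric triplet polymerase ribozyme, which were then transcribed. A single in vitro selection round, in triplicate, used a frozen incubation at −7 °C and recovered extended constructs by gel excision, streptavidin beads and RT-PCR. Fitness is the logarithm of genotype enrichment relative to wild-type enrichment, averaged over replicates with inverse-variance weights. The logarithm is base 2, and after Illumina sequencing only genotypes with ≥10 input reads and ≥1 read per output were kept.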
row,Variant,polymerase ribozyme fitness (log ratio)
1,C38G A41G U55A G83A G143A,-1.78
2,A39G G94C,-2.32
3,C38A U148A,-4.04
4,A39G C54G C57A,-3.22
5,A39G U53A G58C C72G C95G C103G,≤ -4.2
6,C38U C63A C85U,0.65
7,A39G A41G A49G G83C U145A,-3.94
8,C38G U146C,-0.518
9,A39U A41C A98G,-2.72
10,C38U U45A G84U C129A A142C,≤ -4.2
11,C38G C85U A89C,-1.86
12,C38U A47C U53A A142C,-3.39
13,C38A U56A G86C,-3.01
14,A39U C43A C75G C87U C118U,≤ -4.2
15,C38U U55A C85U,-0.272
16,C38U U56A A60U C95A,-1.13
17,A39C C54A G81A,-3.05
18,A39G C118U,-1.27
19,C38U A39C U61G G124C,-3.96
20,A39U A91C G141C U148G,≤ -4.2
21,C38G A120U G140C A142C,≤ -4.2

row,Variant,polymerase ribozyme fitness (log ratio)
1,C38G G133C A147C,-2.55
2,A39G C99A,-3.78
3,A39C G141U,-2.91
4,A39U C51U C54U A60G U82G A98C,-3.88
5,C38U C93G C125A,-3.39
6,C38U A52G G92A G124U,-3.84
7,C38U C85G C93U G117U G128C,≤ -4.2
8,A39C U55G G81C A121U,-2.31
9,C38U A49C,≤ -4.2
10,C38U A40C G81A A91G C125G,-3.83
11,C38U U53G C96G,-1.73
12,C38U C95G U102A,-2.51
13,A39C C85U C149U,-2.98
14,C38U C79U A121U C125A G143U,-3.92
15,A39G A73G U109A A119U,-3.91
16,C38U C95A C108U,-3.39
17,A39C U145C,-1.66
18,A39C G42C C76A U144G,≤ -4.2
19,A39C U56A G59C,-2.08
20,C38U C76U G81C,-0.0752
21,C38U C63A G94C,-0.694

row,Variant,polymerase ribozyme fitness (log ratio)
1,A39U C54U C57G U61A C95G C125G,≤ -4.2
2,A39G U45A A49U U61A C75U G83U C129G U144G,≤ -4.2
3,A39C G71C U78A C95U A122G,≤ -4.2
4,A39G U56G G58C C79U U102A U127G,≤ -4.2
5,C38G C75U C93G,-4.16
6,C38U G58U C85U C108A U134A U144C,≤ -4.2
7,C38U A73U,0.0337
8,A39U C54U U61A C93U A106U,≤ -4.2
9,A39C A60G C87U A147C,-3.78
10,C38A U56G C93G C95A,≤ -4.2
11,A39G U134G,-3.86
12,A39U C43U C85U G117U G126C C132G,≤ -4.2
13,A39C A40C G70C G88C U109C,≤ -4.2
14,C38U U145A,0.631
15,C38A U55G A60G,0.135
16,A39C U53A G86C C105A A119U,≤ -4.2
17,A39G A147U,-0.693
18,A39G U77G,≤ -4.2
19,A39C G59C G86A,-3.73
20,A39C G92U C95A G112A U145G,≤ -4.2
21,A39C A91U G92A U139G,≤ -4.2

row,Variant,polymerase ribozyme fitness (log ratio)
1,A39G U55G G84A U135G,≤ -4.2
2,C38G C54G U82C U146A,-1.88
3,A39U C51G U55G U61G C85U C99U,≤ -4.2
4,A39G A60C G67U C99G G143C,≤ -4.2
5,C38U A60U C87U C95G U135A,≤ -4.2
6,A39U A47G C95U A110G,-3.7
7,A39C U53C U135C,-3.94
8,C38U A40U C116U U135A,0.399
9,C38U C54A A60U,-0.76
10,C38G A60G C76G G81A G84U U102G C116U G128A,≤ -4.2
11,A39C U53G C85U,-4.06
12,A39C C76U G83U U104C,≤ -4.2
13,A39G G50C C51G G58A C93G U139G,≤ -4.2
14,C38U G84U,-2.42
15,C38G G42U G68A U77A C96U G141U,≤ -4.2
16,C38G A142C,-1.24
17,A39G C75U C85U A137G,-3.67
18,A39U C43U U111G,≤ -4.2
19,A39G G88C A91U G136U,≤ -4.2
20,A39G A47C C123U A150G G152A,-3.23
21,C38U C87U C95U U144A,-1.21
